According to US20250043017A1 (Regeneron, published 2025):

B1: mAb25894 (antibody, V domains shown)
VH: EVQLVESGGGLVQPGGSLRLSCVASGFTFSSYEMNWVRQAPGKGLEWVSYISNSGTTIYYAGSVKGRFTISRDNAKKSLYLHMNSLRAEDTAVYYCAREGTIFGTVHYYFALDVWGQGTTVTVSS
VL: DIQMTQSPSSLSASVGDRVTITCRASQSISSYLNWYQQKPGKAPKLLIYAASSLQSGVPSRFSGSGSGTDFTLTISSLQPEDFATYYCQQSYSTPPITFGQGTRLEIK
notes: bivalent parental anti-4-1BB antibody of REGN6188; also called 25894P2; parental bivalent 4-1BB antibody
B2: mAb25898 (antibody, V domains shown)
VH: QVQLVESGGDVVQPGRSLRLSCTASGFTFSSFGMHWVRQAPGKGLEWVTFLSYDGSYKYYADSVKGRFTISRDNSKNTLYLQMNSLRAEDTAIFYCARDWLDYWGQGTLVTVSS
VL: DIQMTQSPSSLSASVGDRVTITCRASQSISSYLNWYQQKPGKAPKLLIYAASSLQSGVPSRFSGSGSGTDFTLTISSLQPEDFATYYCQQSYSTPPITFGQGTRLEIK
notes: bivalent parental anti-4-1BB antibody of REGN6189; also called 25898P2; parental bivalent 4-1BB antibody
B3: mAb25921 (antibody, V domains shown)
VH: QVQLVQSGAEVKKPGASVKVSCKASAYTFTSYGFSWVRQAPGQGLEWMGWISTSNGYTNYAQKIQDRVTMTTDTSTSTAYMELRSLRSDDTAVYYCASLSNWVSFFDYWGQGTLVTVSS
VL: not shown
notes: bivalent parental anti-4-1BB antibody of REGN6191; also called 25921P2; a-4-1BB
B4: mAb9373 (antibody, V domains shown)
VH: QVQLVQSGTEVKKPGASVKVSCKASGYTFTAYYMHWVRQAPGQGLDWMGWISPNSGFTNYAQKFQGRVTMTRDTSINTFYMELSGLRSDDTAVYYCAREGSTHHNSFDPWGQGTLVTVSS
VL: not shown
B5: REGN6188 (bispecific antibody, human IgG4 S228P, kappa)
heavy 1: EVQLVESGGGLVQPGRSLRLSCAASGFTFDDYALHWVRQAPGKGLEWVSGISWTGGTIDYADSVKGRFTISRDNAKNSLYLQMSSLRTEDTAIYYCTRDIRGNWKYGGWFDPWGQGTLVTVSSASTKGPSVFPLAPCSRSTSESTAALGCLVKDYFPEPVTVSWNSGALTSGVHTFPAVLQSSGLYSLSSVVTVPSSSLGTKTYTCNVDHKPSNTKVDKRVESKYGPPCPPCPAPPVAGPSVFLFPPKPKDTLMISRTPEVTCVVVDVSQEDPEVQFNWYVDGVEVHNAKTKPREEQFNSTYRVVSVLTVLHQDWLNGKEYKCKVSNKGLPSSIEKTISKAKGQPREPQVYTLPPSQEEMTKNQVSLTCLVKGFYPSDIAVEWESNGQPENNYKTTPPVLDSDGSFFLYSRLTVDKSRWQEGNVFSCSVMHEALHNHYTQKSLSLSLGK
heavy 2: EVQLVESGGGLVQPGGSLRLSCVASGFTFSSYEMNWVRQAPGKGLEWVSYISNSGTTIYYAGSVKGRFTISRDNAKKSLYLHMNSLRAEDTAVYYCAREGTIFGTVHYYFALDVWGQGTTVTVSSASTKGPSVFPLAPCSRSTSESTAALGCLVKDYFPEPVTVSWNSGALTSGVHTFPAVLQSSGLYSLSSVVTVPSSSLGTKTYTCNVDHKPSNTKVDKRVESKYGPPCPPCPAPPVAGPSVFLFPPKPKDTLMISRTPEVTCVVVDVSQEDPEVQFNWYVDGVEVHNAKTKPREEQFNSTYRVVSVLTVLHQDWLNGKEYKCKVSNKGLPSSIEKTISKAKGQPREPQVYTLPPSQEEMTKNQVSLTCLVKGFYPSDIAVEWESNGQPENNYKTTPPVLDSDGSFFLYSRLTVDKSRWQEGNVFSCSVMHEALHNRFTQKSLSLSPGK
light: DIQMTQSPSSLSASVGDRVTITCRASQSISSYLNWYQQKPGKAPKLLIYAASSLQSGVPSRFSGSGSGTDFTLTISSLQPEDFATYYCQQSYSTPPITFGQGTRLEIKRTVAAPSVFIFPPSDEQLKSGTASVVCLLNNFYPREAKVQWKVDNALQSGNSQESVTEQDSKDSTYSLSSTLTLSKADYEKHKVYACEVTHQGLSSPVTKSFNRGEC
notes: common light chain 1-39; also called R6188; PD-L1x4-1BB REGN6188
B6: mAb25907 (antibody, V domains shown)
VH: EVQLVESGGGLVQPGGSLRLSCEASGFTFSSYEMNWVRQAPGKGLEWISHISSSGSSIYYADSVQGRFTISRDKAKNSLYLQMNSLRAEDTAVYYCTREGFEYGSSSGLKYYYYGLDVWGQGTTVTVSS
VL: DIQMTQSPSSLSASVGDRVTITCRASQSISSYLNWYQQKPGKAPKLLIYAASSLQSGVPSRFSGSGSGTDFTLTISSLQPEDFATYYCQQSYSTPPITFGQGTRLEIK
notes: bivalent parental anti-4-1BB antibody of REGN6190; also called 25907P2

Legend:
human 4-1BB on cells [1] = target: T1, human 4-1BB on cells (human, UniProt Q07011 24-255); assay: flow cytometry, Jurkat/NFkB-Luc/h41BB cells
T1 construct: whole, on cells; also called h41BB; CD137
T1 sequence (Q07011 24-255): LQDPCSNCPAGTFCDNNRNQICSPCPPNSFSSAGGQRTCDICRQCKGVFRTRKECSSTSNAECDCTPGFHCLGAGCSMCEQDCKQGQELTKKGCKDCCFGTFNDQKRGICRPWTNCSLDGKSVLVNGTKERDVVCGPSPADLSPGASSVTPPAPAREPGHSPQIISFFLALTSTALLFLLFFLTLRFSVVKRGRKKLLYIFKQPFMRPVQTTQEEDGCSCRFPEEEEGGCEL
Experimental: Binding was detected by using a labeled secondary antibody and measuring fluorescence on a flow cytometer.
Assay set up: OVCAR-3+/−PD-L1 cells were lifted with trypsin, washed and resuspended in stain buffer (2% FBS in PBS). OVCAR-3 and Jurkat/NFkB-Luc/h41BB cells were counted and added to wells at 200,000 cells/well. Cells, in wells of 96-well round bottom plates, were pelleted by centrifugation and resuspended in 150 ul stain buffer (PBS containing 2% FBS). Plates were once again centrifuged and subsequently 100 ul of stain buffer alone or stain buffer containing antibody, titrated from 200 nM to 12 pM in a 9-point 1:4 dose titration were added to cells. Cells and antibodies were incubated for 30 min on ice and then washed in stain buffer. Cells were resuspended in 2 μg/ml allophycocyanin (APC) conjugated goat-anti human secondary antibody. A secondary antibody alone control was included. Cells and secondary were incubated for 30 min on ice and then washed in stain buffer. After a subsequent wash with PBS (containing no FBS), cells were resuspended in viability dye (reconstituted in DMSO according to the manufacturer's protocol and diluted 1:1000 in PBS) and incubated for 20 min on ice. They were then washed with stain buffer and resuspended in 2% PFA for 30 min at 4 C. After washing they were filtered and analyzed by flow cytometry. EC₅₀ values of the antibodies were determined from a 4 parameter logistic equation over a 9-point dose response curve (including secondary only control) using GraphPad Prism software.

[2] = target: T2, human 4-1BB expressed with a C-terminal myc-myc-hexahistidine tag (h4-1BB.mmH) (human); assay: SPR Biacore, 25 C, antibody captured via anti-hFc, h4-1BB.mmH as analyte
T2 construct: also called hCD137 (4-1BB) mmH
T2 sequence (chain, as listed by the source limits assumed): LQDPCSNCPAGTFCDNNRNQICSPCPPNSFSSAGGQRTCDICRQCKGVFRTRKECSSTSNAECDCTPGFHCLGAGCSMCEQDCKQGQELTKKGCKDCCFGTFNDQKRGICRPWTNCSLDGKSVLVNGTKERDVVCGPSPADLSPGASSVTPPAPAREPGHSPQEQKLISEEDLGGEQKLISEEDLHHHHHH
Experimental: The CM5 Biacore sensor surface was derivatized by amine coupling with a monoclonal mouse anti-human Fc antibody. All Biacore binding studies were performed in a buffer composed of 0.01M HEPES pH 7.4, 0.15M NaCl, 3 mM EDTA, 0.05% v/v Surfactant P20 (HBS-EP running buffer). […] Antibody-reagent association was monitored for 5 minutes while dissociation in HBS-EP running buffer was monitored for 10 minutes. At the end of each cycle, the antibody capture surface was regenerated using a 10 sec injection of 20 mM phosphoric acid. All binding kinetics experiments were performed at 25° C.
Data analysis: The specific SPR-Biacore sensorgrams were obtained by a double referencing procedure. The double referencing was performed by first subtracting the signal of each injection over a reference surface (anti-hFc or anti-mFc) from the signal over the experimental surface (anti-hFc-captured anti-PD-L1×4-1BB antibodies) thereby removing contributions from refractive index changes. In addition, running buffer injections were performed to allow subtraction of the signal changes resulting from the dissociation of captured antibodies or antigens from the coupled anti-hFc or anti-mFc surface. Kinetic association (kₐ) and dissociation (kd) rate constants were determined by fitting the real-time sensorgrams to a 1:1 binding model using Scrubber v2.0c curve fitting software. Binding dissociation equilibrium constants (KD) and dissociative half-lives (t½) were calculated from the kinetic rate constants as: […]

[3] = target: T2, human 4-1BB expressed with a C-terminal …; assay: blocking ELISA, 0.25 nM h4-1BB-mmh binding to coated 6His-Flag-h4-1BBL
Experimental: The 4-1BB blocking assay was performed similarly to the PD-L1 blocking assay. 6His-Flag-h4-1BBL protein ([…] in PBS) was coated onto a 96-well microtiter plate overnight at 4 °C. […] The plates were developed using TMB substrate solution (BD Biosciences) and the absorbance at 450 nm was measured on a SpectraMax I3x plate reader.
Binding data were analyzed using a sigmoidal (four-parameter logistic) dose-response model with GraphPad Prism™ software. […] The percent blocking of tested antibodies at the highest tested concentration of 100 nM was calculated based on the formula shown below: […]

human 4-1BB on cells [4] = target: T1, human 4-1BB on cells; assay: cell-based or functional assay
human 4-1BB on cells [5] = target: T1, human 4-1BB on cells; assay: cell-based or functional assay; remark: listed apart in the source

| Binder | Fold change (max MFI over secondary antibody alone) (human 4-1BB on cells [1]) [fold] | Max [gMFI] (human 4-1BB on cells [1]) | 270 nM h4-1BB-mmH Bind (RU) [2] [RU] | Kd [2] [nM] | koff [2] [s⁻¹] | kon [2] [M⁻¹ s⁻¹] | t½ [2] [s] | % Blocking at 100 nM mAb [3] [%] | NFkB-luciferase EC50, Jurkat/NFkB-Luc/h41BB + HEK293/hCD20/hPSMA (human 4-1BB on cells [4]) [nM] | NFkB-luciferase MAX (RLU), Jurkat/NFkB-Luc/h41BB + HEK293/hCD20/hPSMA (human 4-1BB on cells [4]) [RLU] | NFkB-luciferase MAX (RLU), Jurkat/NFkB-Luc/h41BB + HEK293/hCD20/hPSMA/hPD-L1 (human 4-1BB on cells [4]) [RLU] | IL2 release MAX, human CD3+ T cells + HEK293/hCD20/hPSMA + CD20xCD3 (human 4-1BB on cells [5]) [pg/mL] | IL2 release MAX, human CD3+ T cells + HEK293/hCD20/hPSMA, no CD20xCD3 (human 4-1BB on cells [5]) [pg/mL] | IL2 release MAX, human CD3+ T cells + HEK293/hCD20/hPSMA/hPD-L1 + CD20xCD3 (human 4-1BB on cells [5]) [pg/mL] | IL2 release MAX, human CD3+ T cells + HEK293/hCD20/hPSMA/hPD-L1, no CD20xCD3 (human 4-1BB on cells [5]) [pg/mL] | EC50 (human 4-1BB on cells [1]) [nM] | IC50 [3] [nM] | NFkB-luciferase EC50, Jurkat/NFkB-Luc/h41BB + HEK293/hCD20/hPSMA/hPD-L1 (human 4-1BB on cells [4]) [nM] | IL2 release EC50, human CD3+ T cells + HEK293/hCD20/hPSMA/hPD-L1 + CD20xCD3 (human 4-1BB on cells [5]) [nM] |
| --- | --- | --- | --- | --- | --- | --- | --- | --- | --- | --- | --- | --- | --- | --- | --- | --- | --- | --- | --- |
| B1 | 44.7 | 100000 | 35.1 | 170 | 0.0902 | 530000 | 6 | 61 | 14.8 | 34300 | 29800 | 9.6 | 1 | 7.8 | 1 | – | – | – | – |
| B2 | 53.8 | 120000 | 63.8 | 94.5 | 0.0282 | 298000 | 24 | 70 | – | 19000 | 19000 | 8.4 | 3.3 | 5.1 | 3.3 | 0.0406 | – | – | – |
| B3 | 76.9 | 170000 | – | – | – | – | – | 94 | – | 18000 | 18000 | 10 | 1 | 5.8 | 1 | 0.287 | 0.75 | – | – |
| B4 | – | – | – | – | – | – | – | – | – | 18500 | 18500 | 11.3 | 2.5 | 10.3 | 2.5 | – | – | – | – |
| B5 | 22.9 | 52000 | 25.4 | 128 | 0.0948 | 742000 | 6 | 33 | – | 35900 | 562000 | 7.2 | 5.1 | 45.8 | 5.1 | – | – | 0.558 | 0.926 |
| B6 | 60.5 | 140000 | 67.5 | 34.2 | 0.0196 | 572000 | 36 | 87 | – | 18500 | 18100 | 9.3 | 1.6 | 4.6 | 1.6 | 0.00508 | – | – | – |
